The target in one series is T1, 7-DMATS (Aspergillus fumigatus, UniProt Q4WYG3).
T1 construct: gene etpPT; 7-DMATS-His6 (C-terminal tag kept), plasmid pLW40, expressed in E. coli, Ni-NTA purified
T1 sequence (Q4WYG3 1-472): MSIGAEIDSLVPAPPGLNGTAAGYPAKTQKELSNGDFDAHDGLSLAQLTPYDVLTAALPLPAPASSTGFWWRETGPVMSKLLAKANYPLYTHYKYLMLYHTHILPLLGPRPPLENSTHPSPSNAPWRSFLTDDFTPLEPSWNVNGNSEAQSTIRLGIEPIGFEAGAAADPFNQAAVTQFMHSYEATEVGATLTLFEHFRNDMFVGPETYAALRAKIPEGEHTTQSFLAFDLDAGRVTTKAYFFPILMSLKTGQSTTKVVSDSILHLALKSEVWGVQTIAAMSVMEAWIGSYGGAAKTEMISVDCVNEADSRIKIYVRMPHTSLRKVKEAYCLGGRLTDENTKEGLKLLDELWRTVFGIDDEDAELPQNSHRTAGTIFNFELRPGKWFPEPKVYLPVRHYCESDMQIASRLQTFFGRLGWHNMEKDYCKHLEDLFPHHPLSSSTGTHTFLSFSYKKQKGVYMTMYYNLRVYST
In words: LCMS prenylation assay, conversion yield. The format is biochemical. As to conditions: 1 mM substrate; 1 mM DMAPP; 5 mM CaCl2; 4 µg protein in 50 µL; pH 7.5; 37 °C; 16 h; C6- and C7-prenylation.

In the next series the target is T2, 6-DMATSSa (Streptomyces ambofaciens, UniProt A3KIV6).
T2 construct: gene SAM23877_0730; 6-DMATSSa-His6 (C-terminal tag kept), plasmid pJW12, expressed in E. coli, Ni-NTA purified
T2 sequence (A3KIV6 1-375): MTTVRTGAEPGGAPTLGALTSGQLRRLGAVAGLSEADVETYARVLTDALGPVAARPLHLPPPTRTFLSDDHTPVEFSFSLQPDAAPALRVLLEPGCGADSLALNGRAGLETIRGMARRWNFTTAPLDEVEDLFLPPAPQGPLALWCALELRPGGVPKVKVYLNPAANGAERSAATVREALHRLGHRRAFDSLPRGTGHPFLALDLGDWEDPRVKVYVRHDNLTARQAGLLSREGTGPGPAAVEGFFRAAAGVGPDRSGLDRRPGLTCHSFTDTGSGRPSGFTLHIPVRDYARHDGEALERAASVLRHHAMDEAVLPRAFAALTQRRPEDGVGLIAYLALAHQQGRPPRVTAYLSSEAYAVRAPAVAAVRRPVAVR
Description: LCMS prenylation assay, conversion yield. The format is biochemical. As to conditions: 1 mM substrate; 1 mM DMAPP; 5 mM CaCl2; 4 µg protein in 50 µL; pH 7.5; 37 °C; 16 h; C6-prenylation.

Substrate in series [1]: CC(C)=CCOP(=O)(O)OP(=O)(O)O
In words: HPLC prenylation assay, Michaelis-Menten fit. The format is biochemical, Aspergillus ruber. As to conditions: 1 mM C4-prenylated cyclo-L-Trp-L-Pro (3), 5 mM CaCl2, pH 7.5, 37 °C, 30 min. From the text:
(§1) HPLC prenylation assay, Michaelis-Menten fit on EchPT1

Substrate in series [2]: CC(C)=CCc1ccc2[nH]cc(C[C@@H]3NC(=O)[C@@H]4CCCN4C3=O)c2c1
Description: HPLC prenylation assay, Michaelis-Menten fit. In kind it is biochemical, Aspergillus ruber. As to conditions: 1 mM DMAPP, pH 7.5, 37 °C, 35 min.
From the text: as §1

Substrate in series [3]: CC(C)=CCc1ccc2c(C[C@@H]3NC(=O)[C@@H]4CCCN4C3=O)c[nH]c2c1
In words: HPLC prenylation assay, Michaelis-Menten fit. As to conditions: 1 mM DMAPP, pH 7.5, 37 °C, 30 min, N1-prenylation. The format is biochemical, Aspergillus ruber.
From the text: as §1

Substrate in series [4]: CC(C)=CCc1cccc2[nH]cc(C[C@@H]3NC(=O)[C@@H]4CCCN4C3=O)c12
In words: HPLC prenylation assay, Michaelis-Menten fit. As to conditions: 1 mM DMAPP, pH 7.5, 37 °C, 30 min. The format is biochemical, Aspergillus ruber.
From the text: as §1

With `O=C1N[C@@H](Cc2c[nH]c3ccccc23)C(=O)N2CCC[C@@H]12` [compound 1, cyclo-L-Trp-L-Pro], the values for the conversion yield at 7-DMATS and on 6-DMATSSa were 11.6 ± 1.4% and 29.9 ± 0.6%, respectively.

B1: EchPT1 (Aspergillus ruber) (protein)
chain: MPSEVLTSYYDYPTHDQEAWWRDTGPLFGRFLKGAGYDVHTQYQYLVFFIKNILPSLGPYPARWRSTITPTGLPIEYSLNFQLNSRPLLRIGFEPLSRFSGTPQDPYNKIAAADLLNQLSKLQLHEFDTQLFNHFTNEFELSKSESESLQKQGGINGKSTVRSQTAFGFDLKGGRVAVKGYAFAGLKNRATGTPVGQLISNSIRNLEPQMHCWDSFSILNSYMEESDGWNEYSFVSWDCVDIERSRLKLYGVHNAVTWDKVKEMWTLGGRIENNATIKTGLELLQHMWSLLQINEGDRDYKGGFAADNGGKTLPIIWNYELNKGSPHPAPKFYFPVHGENDLQVSKSISEFFTHLGWQDHARQYPHLLRQIYPNQNISQTERLQAWISFAYNERTGPYLSVYYYSAERPPWGSDQVK
notes: His6-EchPT1 (N-terminal tag kept), plasmid pVW90, expressed in E. coli, Ni-NTA purified
One may read the Km as the substrate concentration at which the rate is half of its maximum. By kcat is commonly meant the number of substrate molecules converted per active site and unit of time at saturation. The term kcat/Km denotes the turnover number divided by the Michaelis constant. With B1, the Michaelis-Menten constant (Km) was found to be 100 ± 10 µM in series [1], 80 ± 20 µM in series [2], 50 ± 7 µM in series [3] and 60 ± 10 µM in series [4]. In addition, the turnover number (kcat) is 0.25 ± 0.02 s⁻¹ in series [1], 0.03 ± 0.004 s⁻¹ in series [2], 0.007 ± 0.0004 s⁻¹ in series [3] and 0.21 ± 0.02 s⁻¹ in series [4]. For the same molecule, the specificity constant (kcat/Km) in series [1] is 2500 M⁻¹ s⁻¹; in series [2], 375 M⁻¹ s⁻¹; in series [3] it was 140 M⁻¹ s⁻¹; in series [4] it was 3500 M⁻¹ s⁻¹.

The record behind these values is paper PMC9750918, “Diprenylated cyclodipeptide production by changing the prenylation sequence of the nature’s synthetic machinery” (Applied Microbiology and Biotechnology, 2022).
